Assay: label from the status in PepcDB records

In the case of “MKVINVDVAIIGTGTAGMGAYRAAKKHTDKVVLIEGGAYGTTCARVGCMPSKLLIAAADASYHASQTDLFGIQVDRISVNGKAVMKRIQTERDRFVGFVVESVESFDEQDKIRGFAKFLDEHTLQVDDHSQVIAKRIVIATGSRPNYPEFLAAAGSRLLTNDNLFELNDLPKSVAVFGPGVIGLELGQALSRLGVIVKVFGRSGSVANLQDEEMKRYAEKTFNEEFYFDAKARVISTIEKEDAVEVIYFDKSGQKTTESFQYVLAATGRKANVDKLGLENTSIELDKKNSPLFDELTLQTSVDHIFVAGDANNTLTLLHEAADDGKVAGTNAGAYPVIAQGQRRAPLSVVFTEPQVASVGLSLRQIEDLYADQDAANYVVGQVSFEGQGRSRVMGKNKGLLNVYADRTSGEFLGAEMFGPAAEHIGHLLAWARQQQMTVQAMLTMPFYHPVIEEGLRTALRDAQQKLAIEKHDMNEFIMTHDNAMKLVI”, the protein production is reported as “not failed”.

With “MKVITSLISSILLKFIHKDFHEIYARMSLLDRFLLLIVHGVDKMVPWHKLPVFLGLTYLEVRRHLHQQYNLLNVGQTPTGIRFDPANYPYRTADGKFNDPFNEGVGSQNSFFGRNCPPVDQKSKLRRPDPMVVATKLLGRKKFIDTGKQFNMIAASWIQFMIHDWIDHLEDTHQIELVAPKEVASKCPLSSFRFLKTKEVPTGFFEIKTGSQNIRTPWWDSSVIYGSNSKTLDRVRTYKDGKLKISEETGLLLHDEDGLAISGDIRNSWAGVSALQALFIKEHNAVCDALKDEDDDLEDEDLYRYARLVTSAVVAKIHTIDWTVQLLKTDTLLAGMRANWYGLLGKKFKDSFGHAGSSILGGVVGMKKPQNHGVPYSLTEDFTSVYRMHSLLPDQLHILDIDDVPGTNKSLPLIQEISMRDLIGRKGEETMSHIGFTKLMVSMGHQASGALELMNYPMWLRDIVPHDPNGQARPDHVDLAALEIYRDRERSVPRYNEFRRSMFMIPITKWEDLTEDEEAIEVLDDVYDGDVEELDLLVGLMAEKKIKGFAISETAFYIFLIMATRRLEADRFFTSDFNETIYTKKGLEWVNTTESLKDVIDRHYPDMTDKWMNSESAFSVWDSPPLTKNPIPLYLRIPS” the protein production was “failed”.

For “MKVKSISRFFSMKKVTLSFVTLFIGVGTIGSYNQYADASMKTQQTHVTKSSPTQKTTSNFKRSVKDTSVKSRATSIKRATSTKQAISPKTSSTKKTTIAKKSTTVNKTRTTTKTQPTIRKSSTTSTRSKTMPTSVKRTTSHKATTVSPTSKAKISTKTQQSTKSHTTSVKKNTTQLSKTKSPSTSTKSKTVQSSTTKAQPTLSTQVSTTTKAKQFSTPTTSKTDSSKSLVSLASTERKIDKYQSMTQLEKETTEGVDWRKDTKNTGNQVLIVAPHGGSIEQGTTELTKALADKGNYDYYSFEGIRPKNNSELHVTSTHYDDPTLNQMIKNRTATISIHGASGSEEIIYLGGPRSDLRNAIEKQLVARGFTVKVPPEYLGGQNNKNFINREDNNTGVQLELTTALRKAFFKNGDTSTKNRTNKENWTPTMEEFINALYEGINQTYSLEHHHHHH”, the protein production was “failed”.

With “MKVLETATQVLEWTAHDTQLLVVAALGIALIVVLIAKLKLHPFLALVLGSAFVGLASGVELGKVITNFEDGVGGVLKEVGLLIALGAMLGKLLADSGGANRVVDTLLAKASGNKLVWMITLVAVIIGLPMFFEIGLVLLLPVIVLVTQRSKMKLMRIAIPALAGLSVLHGLVPPHPGPLIAISAVKAELGTTLGLGILVAIPTVIICGPLFSRLAARWVPVDAPAVAGGIDTQHAADLSEVKRQPSFLVTLLTIIFPVVLMLLKALGGIIWPNPETAPAIRIFFDFVGQPLVAMTLAVLLAIVTFGYAVGFTGSRITAKLGESLGPIAAILLIVGAGGGFKQTLIGAGVGDAVKKWAEGANMSVLVLGFIVAVALRLATGSATVATVTAAGIVAPLASSLSPTHAALLALAIGAGSLFLSHVNDAGFWLVKELFGLTVGQTFKTWSVMETLISVVGFGFVMLLSLVL” the protein production was “failed”.

For “MKVLKPGLLTTVQDIGRTGYQKYGVLASGAMDTVSLRIANLLIGNGENEAGLEITMMGPGPSFHFSKQTLIAVTGADFTLRINDEEAPLWKPVLIKENSTVSFGPCKLGSRAYLAAAGGIEVPAVMESKSTYVRGSIGGLHGRALQKEDELNIGEMSALSQTILSRLSSQLAHTVIGSTDVVSQPWEISVIEDESRHSSAGGISICLLHSRIKNAFSEEAFRVTPQSDRMGYRLKGEPLDLTAPLEMVSAAVSFGAAQMPPAGKPYYPCLQDRQDDWPAIRGIAHIISADLPIVSQIMPGEHVQFEPVSLQEAEALAVEREQHIKELKTRMKMEWLT”, the protein production was “not failed”.

In the case of “MKVLLANPRGFCAGVDRAIEIVKRTIDMLGTPIYVRHEVVHNRFVVDDLKQRGAIFVEELHQVPDGATVIFSAHGVSQAVRRQAAQRGLKVFDATCPLVTKVHLDVARHCRTGRDMILIGHAGHPEVEGTMGQWDQERGTGRIYLVENIDDVATLHVAQPHHLAYTTQTTLSVDDTRNIIDALRQRFPTIQGPKNNDICYATQNRQDAVRELARECDLVLVVGSPNSSNSNRLSELAQREGVASYLIDSAAEIDPAWVIDKHHIGVTAGASAPQVLVDGVLARLYELGATSVSEHSGKPESMVFALPKALRLQLVD”, the protein production is reported as “failed”.

In the case of “MKVLLIQPPSSTAFMDKVYMYEPLGLEYLGAGLQEDGHEVLLLDARLEPDFEKAFHSFQPDIVGITGYTNHLNIVKAIAARFKSINPEVFIIVGGHHATVKPADYNDQAIDLIIIGEGVFTLRQVLKHKESLLPFEDIPGLAIPGAVMKFTAERPYTPLDDLPFPDRSLTARYRNHYFSDWMKPIASIRTSLGCFGRCNFCALWSITNGKYLQRNPERIVAELQGIQEEIVFFCDDESMCDTRRMDQLADLIQEAGIRKKYFLYGRVDTIVKHPELFAKWKNIGLIQVFVGFESFSDERLQGLNKNITVAQQEEAVKILNDLNIDIYASFVIDPSFTRQEFTQLIAYTRKLNIAYAALSVLTPLPGTALYEQNKDRLLTHDPKFFDFMHTVLPTALPLKQFYSEYARTLMKATPIPRYFRFIAKFDRQRRLSTMKELYGVVGDVRKGYQWHQAKES”, the protein production is reported as “failed”.

In the case of “MKVNKRVLSIGLAISLIMAGAPNINALSSIEKIQGKDRYETAAKIAQKQTYENVVLVNTDNTLADGLSASGLAGTVKAPILLSQRNSIPSDTEKMLKDVKKVYIIGTEDSIGKSVENELKQKGIEVKRIGGNDRIETSYLIAKEIASIKPIDKVFITNGYTGEADAMSASSVASRDGAPIILTNGKNVPFEKKEGVQCYALGSEEIISNDLVKKTNSVRLAGEDRFETNKKVIKHFYSSAKEFYLSKGYQLVDAVAGSSIAKNAPIVLVDGNSDKSVLRSADKITALGGIDEKTLEQCLSASSLDASAPTITVGNLNIYQGDKFDISKLNIVAKDSNGNDLTPELIGNINTDKVGKYKVTIKATDIGGKTTSISVEVNVLEYKTNDMNSSEFKRMVSSEMYSLVNSYRKEKGKEPLQVSENLQGMANYWSKYMADKGEFAHVINGKNAAEVFSGGIRSEENIAFVPLTTKSTYTTKDAREVANVIFTVWKKSDKYNENMLSSKFAYTGFGLYILPDGQVYATQEFLNK”, the protein production is reported as “failed”.

In the case of “MKVRAIKSFLVTTMAMTFLVSMGQGSILTKANTINNMKYVTEAFGAIPTEEQVSYQKEELTAFIHFGVNTFTGREWGDGTENPEIFNPTNLDADQWVKTLADAGFGRVILTAKHHDGFCLWDSAYTKHDVASSPWKNGKGDVVKEVSEACAKYNIKFGVYLSPWDQNSEHYGEGNGGDYNEFYMNQLRELLTNYGPIAEVWMDGAKGSNVKQEYNFEEWFALIKELQPECLIFSPQGPDIRWIGNEKGYAGEPCWSTIDIEKMKERENPTYLNNGEEGGPDWVVGESDVSIRPGWFYHESQDNEVKSLEKMMDIYFKSIGRNSVLLLNVPPNKEGKLHENDVNRLKEFGETIKELFNDDLALNKEVIVDGFANRDETYGANKIVDGDYDTYWAPDNSSKTGTIEIDLGESKEFDVISLQEYIPLGQRVSSFNVEVLQGENWNKVYEGKTIGYKRLVRIAPTKGEKIRINITGSLEVPLINNVGVYKQPTSIELPSGPPAGLKVLNDDNKGNELEQFNFSDGWVYETIHGENDLGGDAHYTSKTNATVNIKFNGTKFFLSGTKDSGHGIMEISIDGENPVEVDLYSPNRKSKEIVFESEDLSDGEHEVTVKCTGRKNSSSRGTAAHIDGAYVLDNGGKGMVEFEKVGYEVSENIGTATFKVIRKGGSNGKLEVNYDTLAGTALNGVDYQTWSGTLAFNEGETEKTFDITIIDDKEKEEPKEFYLKLSDPIGGILGFNSRATVTINDDEQIK”, the protein production is reported as “failed”.

With “MKVTQNENLKLAQRGAFLSLVIYIILSIAKYMTGYVYDSAAVRADALNNMTDILVSVAVIVGLKISIKPADQNHPYGHLKSENISTLLVSFIIMFVGIQVIIENFPRLFTHDSHIPNFITIIISMISGLVMLCVFAINYRLSKRTKSSSLKSAAKDNLSDSLVSIGTAIGLMFTQIGFPIIDIILANILGLLIVYTGFGIFKESIFTLSDGFNEQDLEEYRLDILEVEDVIDVNNIKGRYHGSSIFIDVTIVVDPYLSLYEAHQICDKVEIHLHNKGISSVYVHPEPYTTKDEVK” the protein production was “failed”.

With “MKVTVVSRSGREVLKAPLDLPDSATVADLQEAFHKRAKKFYPSRQRLTLPVTPGSKDKPVVLNSKKSLKEYCDGNNNSLTVVFKDLGAQVSYRTLFFFEYLGPLLIYPVFYYFPVYKFLGYGEDCVIHPVQTYAMYYWCFHYFKRILETFFVHRFSHATSPIGNVFRNCAYYWSFGAYIAYYVNHPLYTPVSDLQMKIGFGFGLVCQVANFYCHILLKNLRDPSGAGGYQIPRGFLFNIVTCANYTTEIYQWLGFNIATQTIAGYVFLAVAALIMTNWALGKHSRLRKIFDGKDGKPKYPRRWVILPPFL” the protein production was “failed”.

For “MKVYDVTAPIYEGMPVYKNKPEKQPKRTTITNGYVTESRIDMDVHTGTHIDAPLHMVEGGATFETIPLNDLVGPCKLFDLTHVNDRITKDDIAHLDIQEGDFVLFKTKNSFEDAFHFEFIFVAEDAARYLADKQIRGVGIDALGIERAQEGHPTHKTLFSAGVIIIEGLRLKDVPEGRYFMVAAPLKLVGTDAAPARVLLFDREP”, the protein production was “not failed”.

For “MKWSEISIHTTEEAVEAVSHILHEAGASGVAIEDPAELTKEREQQYGEIYALNPDEYPAEGVLIKAYFPQTDSLHETIAGVKSSIDVLPSYDIEIGTGNITVNEVNEEDWATAWKKYYHPVQISDTFTIVPTWEEYTPSSPEEKIIELDPGMAFGTGTHPTTTMCIRALEKTVQPGDTIIDVGTGSGVLSIAAAKLGASSVQAYDLDPVAVESAEMNVRLNKTDDVVSVGQNSLLEGIEGPVDLIVANLLAEIILLFPEDAARVVKSGGLFITSGIIAAKEKVISEALEKAGFTIEEVLRMEDWVAIIARNA”, the protein production was “failed”.

With “MKYDVVVVGSGVAGPIVARDVAKAGFSVLLVDKKPAIGTPKQCAEGINVNVFKEFDIPYDKRFINREIYGARIYSPSGYTAELRYDKVSGVILERKVFDKMLAYYAAKAGADVWARTEVIDLLRKEGKIMGVKAKHEGELVEIEAKIIVAADGVESTVARLAGINTYAPPHEFDSAYEYEMIIEGYDPDLIHLWFGNEIAPRGYVWVFPKDEDRANVGIGINSDNEKTAKYYLDKWLKENNIPTKKILEINVGLVPVGGFVRELVKENVAVVGDAARQVNPVHGGGMYEAMKAANILAKWIVKALEEENLELLKNYTKEWWEVEGPKMERLLKLRRAMEKLTDEDIDVFVQLLGGTDLEKLAGGNYFEVVKALMKHPKVLMSKRRLEILKALL” the protein production was “not failed”.

With “MKYIIIGLGNYGGVLAEELSVLGHEVIGVDTNEHRVDVLKDKIATSFIIDATDEQSLSVLPLKDVDVVIVAIGENFGASVRVVALLKKKGVKHIYARAVDDVHKTVLEAFNLDSILTPEKEAARSLVQLLDLHVNVESFQIDEEHYVMKFKLPSCFVGYKVSDLSLETEFNIKIIALIKGEKVLNGLGISILEHQVENHFEENYELEEEDQLVCYGLYKNFMDFWKAL” the protein production was “failed”.

For “MKYIINHSNDTAFNIALEEYAFKHLLDEDQIFLLWINKPSIIVGRHQNTIEEINRDYVRENGIEVVRRISGGGAVYHDLNNLNYTIISKEDENKAFDFKSFSTPVINTLAQLGVKAEFTGRNDLEIDGKKFCGNAQAYINGRIMHHGCLLFDVDLSVLANALKVSKDKFESKGVKSVRARVTNIINELPKKITVEKFRDLLLEYMKKEYPEMTEYVFSEEELAEINRIKDTKFGTWDWNYGKSPEFNVRRGIKFTSGKVEVFANVTESKIQDIKIYGDFFGIEDVAAVEDVLRGVKYEREDVLKALKTIDITRYFAGISREEIAEAVVG”, the protein production was “not failed”.

— a protein production outcome set (Wang et al. 2014)
